Paper PMC9663324, “Structural and mutational studies suggest key residues to determine whether stomatin SPFH domains form dimers or trimers” (Biochemistry and Biophysics Reports, 2022)

B1: PhStom (63–234) (domain or fragment, Pyrococcus horikoshii, UniProt O59180 63-234, looked up)
chain: VDLRTQVLDVPVQETITKDNVPVRVNAVVYFRVVDPVKAVTQVKNYIMATSQISQTTLRSVIGQAHLDELLSERDKLNMQLQRIIDEATDPWGIKVTAVEIKDVELPAGMQKAMARQAEAERERRARITLAEAERQAAEKLREAAEIISEHPMALQLRTLQTISDVAGDKSN
notes: stomatin PH1511 of Pyrococcus horikoshii, residues 63–234; Initial methionine added before residue 63; In the crystal (8GN9) only residues 64–169 are modelled; the authors consider that residues 170–234 (and so the tag) were degraded during crystallization; source: E. coli BL21 (DE3) Codon-Plus RIL, purified (heat 85 °C, Ni-NTA, Superdex 200 gel filtration)
B2: PhStom (56–234) K59S (domain or fragment, Pyrococcus horikoshii, UniProt O59180 56-234, looked up)
chain: IFESAVIVDLRTQVLDVPVQETITKDNVPVRVNAVVYFRVVDPVKAVTQVKNYIMATSQISQTTLRSVIGQAHLDELLSERDKLNMQLQRIIDEATDPWGIKVTAVEIKDVELPAGMQKAMARQAEAERERRARITLAEAERQAAEKLREAAEIISEHPMALQLRTLQTISDVAGDKSN
notes: stomatin PH1511 of Pyrococcus horikoshii, residues 56–234 with K59S; Initial methionine added before residue 56; PDB 3BK6 is the parent (wild type) of the same limits; also called K59S mutant of PhStom (56–234); K59S mutant; source: E. coli BL21 (DE3) Codon-Plus RIL, purified (heat 85 °C, Ni-NTA, Superdex 200 gel filtration)

Biological target: the molecule itself
Test: SEC; Hi Load 16/60 Superdex 200 gel-filtration column, 50 mM Tris-HCl (pH 8.2), 50 mM NaCl, 1 mL/min; approximate molecular mass estimated from the elution of calibration proteins (44–669 kDa)

Protein	stoichiometry N
B1	2
B2	2
